Article PMC1373645, “Lactate production yield from engineered yeasts is dependent from the host background, the lactate dehydrogenase source and the lactate export” (Microbial Cell Factories, 2006)

Test system: T1, CC(=O)C(=O)O
T1 construct: full length, TTG start changed to ATG, untagged, expressed in S. cerevisiae GRF18U; crude cell extract; homotetramer
Assay: cells, lysate or membranes
Format: biochemical, Lactiplantibacillus plantarum
Settings: NADH, acetate buffer pH 5.6, 25 °C, no fructose 1,6-diphosphate, Table 2 prints 1,50

L. plantarum LDH (LpLDH, plLDH) (Lactiplantibacillus plantarum WCFS1; C302S/H54D)
Km: 1504 µM
